The nature of this data set: Double-sided release test of fluorescent molecules from electrospun scaffolds in custom-made diffusion chambers. Format: physicochemical. On the procedure: For molecule release characterizations, the circular samples with 24 mm in diameter were cut from PCL-PLGAac and PCL-PLGAes scaffolds loaded with fluorescent dye or fluorescently-labeled albumin. For each experimental condition, 3 samples were used for analyses. Scaffold samples were placed in a custom-made diffusion-test system in which a sample was sandwiched between two reservoir chambers. Each side of the electrospun scaffolds thus faced a different reservoir filled with 1 ml of buffer solution. The reservoirs used SecureSeal hybridization chambers (Grace Biolabs, Bend, Oreg.) which tightly sealed the surface. Each reservoir had small holes for sampling and changing solutions. The holes were covered with silicone sealing tap during experiments to prevent evaporation. Thus, the molecule movements between the reservoirs could only be through the pores of the electrospun materials. The release tests were performed at 37° C. Samples of buffer solutions in both reservoirs were collected every day during the first 16 days, and subsequently once a week for scaffolds loaded with fluorescent albumins. A shorter release experiment was performed in case of electrospun scaffolds loaded with Rh123. After samples were taken, the reservoir chambers were rapidly rinsed with DI water and refilled with fresh phosphate buffer at 37° C. […] The geometry and porosity of the molecule-releasing scaffolds kept constant for all the experimental samples. For the designs with multiple molecules, as various fluorophores could be simultaneously released by the samples, the possibility of the overlap of the fluorophore emission spectra was examined; we could find no overlaps in the interested spectrum ranges. […] For each type of molecule, the efficiency of separation between Side A and Side B, Smolecule—A-B, was defined as the percentage of the molecule released on Side A over the total amount of the molecule released on Sides A and B during the entire experimental duration.
To assess the potential use of PCL-PLGAac and PCL-PLGAes materials for spatially controlled release of active molecules, release experiments were performed using Rh123. PCL and PLGA/Rh123 solutions were electrospun to prepare scaffolds following the pattern described in FIG. 1. Release studies were carried out in custom-made diffusion chambers illustrated in FIG. 7a. The two sealed reservoirs filled with phosphate buffer solution were placed on the opposite sides of the electrospun scaffolds. The PCL side of the scaffold was set to face the buffer reservoir chamber on Side “A”; the Rh123-impregnated PLGA side was placed in contact with the buffer reservoir on Side “B”. […] The separation efficiency of Rh123 between the two surfaces (SRh123—B-A) of the PCL-PLGAac scaffolds was 82±5% during the 9-day release experiment. […] In addition, after day 3, the molecule concentration measured on the PCL side exceeded that on the PLGAes side.

Consider “fluorescein isothiocyanate conjugate bovine serum albumin [AlbF]”, for which the “separation efficiency (release of two proteins to one side)” value (PCL-PLGAac composite scaffold, AlbF in inner PLGAac fibers, AlbT in outer PLGAac fibers (FIG. 10a)) was 87±5%. Further, the “separation efficiency between side B and side A (sequential release scaffold)” value (PCL/PLGA scaffold with dual PLGA gradient patterns: AlbF-loaded PLGA in the middle, AlbT-loaded PLGA close to side B (FIG. 11a)) is recorded as 0.92±0.03. The “separation efficiency of AlbF between Side A and Side B (SAlbF A-B)” value (PLGAac-PCL-PLGAac composite scaffold, release to opposite sides (FIG. 12)) was determined as 91±4%. The “initial release rate on Side B compared to AlbT” value (dual-protein PCL-PLGAac scaffold, first 10 days, cumulative release normalized to total delivered protein) was “slower rate”. Moreover, the “day on which daily net release to side B peaked” value (sequential release scaffold (FIG. 11), first 12 days) amounted to 5 days.

(Values after patent publication US20140037708A1, “COMPOSITION FOR SPATIO AND/OR TEMPORAL RELEASE OF BIOACTIVE MATERIAL” (The Regents of the University of Colorado, a body corporate, priority 2012, published 2014).)
